Experimental data published in publication PMC9482650, “Quantitative fragmentomics allow affinity mapping of interactomes” (Nature Communications, 2022).

T1: LIN7C, Q9NUP9
T1 sequence (Q9NUP9 88-185, limits assumed, looked up): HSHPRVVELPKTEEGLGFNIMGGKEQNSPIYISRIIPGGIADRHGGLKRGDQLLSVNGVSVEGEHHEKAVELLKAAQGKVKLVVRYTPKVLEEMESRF

T2: SNTG1, Q9NSN8
T2 sequence (Q9NSN8 52-150, limits assumed, looked up): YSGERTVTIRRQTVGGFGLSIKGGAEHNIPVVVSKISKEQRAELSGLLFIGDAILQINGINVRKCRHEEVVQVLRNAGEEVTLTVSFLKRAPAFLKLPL

T3: APBA3_1, O96018
T3 sequence (O96018 389-490, limits assumed, looked up): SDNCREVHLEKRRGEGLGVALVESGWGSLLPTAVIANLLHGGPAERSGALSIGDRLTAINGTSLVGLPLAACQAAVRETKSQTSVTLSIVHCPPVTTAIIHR

T4: RAPGEF6, Q8TEU7
T4 sequence (Q8TEU7 525-625, limits assumed, looked up): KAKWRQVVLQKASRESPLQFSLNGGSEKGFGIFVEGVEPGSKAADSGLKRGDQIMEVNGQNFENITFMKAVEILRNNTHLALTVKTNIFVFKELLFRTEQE

T5: MPDZ_12, O75970
T5 sequence (O75970 1857-1958, limits assumed, looked up): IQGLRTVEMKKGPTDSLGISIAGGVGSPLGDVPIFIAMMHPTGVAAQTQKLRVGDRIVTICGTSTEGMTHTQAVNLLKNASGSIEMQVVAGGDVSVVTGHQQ

T6: PARD3B_1, Q8TEW8
T6 sequence (Q8TEW8 196-299, limits assumed, looked up): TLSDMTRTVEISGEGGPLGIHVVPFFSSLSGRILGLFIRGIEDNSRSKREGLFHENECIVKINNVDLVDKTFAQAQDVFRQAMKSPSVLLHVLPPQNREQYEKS

T7: MPDZ_10, O75970
T7 sequence (O75970 1624-1722, limits assumed, looked up): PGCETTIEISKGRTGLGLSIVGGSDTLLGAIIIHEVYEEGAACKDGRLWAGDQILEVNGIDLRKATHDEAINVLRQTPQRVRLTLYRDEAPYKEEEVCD

T8: DFNB31_3, Q9P202
T8 sequence (Q9P202 811-907, limits assumed, looked up): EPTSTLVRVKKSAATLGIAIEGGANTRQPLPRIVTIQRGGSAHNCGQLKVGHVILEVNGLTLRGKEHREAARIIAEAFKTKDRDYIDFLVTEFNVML

T9: SNTA1, Q13424
T9 sequence (Q13424 82-180, limits assumed, looked up): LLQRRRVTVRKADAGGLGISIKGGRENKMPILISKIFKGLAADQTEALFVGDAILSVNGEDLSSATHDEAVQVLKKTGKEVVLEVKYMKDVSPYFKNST

T10: NHERF3_1, Q5T2W1
T10 sequence (Q5T2W1 4-100, limits assumed, looked up): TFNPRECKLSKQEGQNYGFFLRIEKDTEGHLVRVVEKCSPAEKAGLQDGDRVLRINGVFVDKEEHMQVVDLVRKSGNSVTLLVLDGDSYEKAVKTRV


Tests used:
Test in all cases: holdup assay
Design in all cases: key: below the threshold = too weak to quantify, mostly under pKd 3.1 to 4
Conditions in all cases: plain residues with an end cap or a label only (N-terminal biotin on a linker: ado-ado)
[1] = target: GRID2IP_1, A4D2P6
GRID2IP_1, A4D2P6, sequence (A4D2P6 1-87): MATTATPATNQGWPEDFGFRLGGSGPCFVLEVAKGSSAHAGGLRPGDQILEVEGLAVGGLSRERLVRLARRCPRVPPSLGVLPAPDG

[2] = target: T1, LIN7C, Q9NUP9
[3] = target: T2, SNTG1, Q9NSN8
[4] = target: GRIP2_6, Q9C0E4
GRIP2_6, Q9C0E4, sequence (Q9C0E4 648-740): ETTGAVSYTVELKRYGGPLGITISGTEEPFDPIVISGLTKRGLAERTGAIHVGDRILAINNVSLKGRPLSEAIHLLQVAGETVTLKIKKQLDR

[5] = target: FRMPD4, Q14CM0
FRMPD4, Q14CM0, sequence (Q14CM0 67-160): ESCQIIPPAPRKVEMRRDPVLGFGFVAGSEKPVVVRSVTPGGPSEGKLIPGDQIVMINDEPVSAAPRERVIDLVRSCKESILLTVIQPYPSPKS

[6] = target: TJP1_3, Q07157
TJP1_3, Q07157, sequence (Q07157 416-512): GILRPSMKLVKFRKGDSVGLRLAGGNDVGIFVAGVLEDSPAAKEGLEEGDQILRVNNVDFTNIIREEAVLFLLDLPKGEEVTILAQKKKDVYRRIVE

[7] = target: GIPC2, Q8TF65
GIPC2, Q8TF65, sequence (Q8TF65 112-203): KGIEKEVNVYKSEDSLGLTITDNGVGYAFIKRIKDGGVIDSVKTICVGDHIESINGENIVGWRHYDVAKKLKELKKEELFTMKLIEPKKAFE

[8] = target: SCRIB_1, Q14160
SCRIB_1, Q14160, sequence (Q14160 718-814): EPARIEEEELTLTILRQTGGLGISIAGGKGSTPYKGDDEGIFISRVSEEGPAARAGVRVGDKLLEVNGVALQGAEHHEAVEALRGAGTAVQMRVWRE

[9] = target: DLG5_1, Q8TDM6
DLG5_1, Q8TDM6, sequence (Q8TDM6 617-713): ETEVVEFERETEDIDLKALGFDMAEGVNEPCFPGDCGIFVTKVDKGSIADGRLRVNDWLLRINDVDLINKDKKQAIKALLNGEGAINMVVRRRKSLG

[10] = target: T3, APBA3_1, O96018
[11] = target: MAGI2_2, Q86UL8
MAGI2_2, Q86UL8, sequence (Q86UL8 410-522): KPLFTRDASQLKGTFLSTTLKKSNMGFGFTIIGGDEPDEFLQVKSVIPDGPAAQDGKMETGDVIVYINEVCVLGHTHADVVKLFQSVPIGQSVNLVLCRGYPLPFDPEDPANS

[12] = target: DLG2_2, Q15700
[13] = target: T4, RAPGEF6, Q8TEU7
[14] = target: T5, MPDZ_12, O75970
[15] = target: T6, PARD3B_1, Q8TEW8
[16] = target: MAGI2_3, Q86UL8
MAGI2_3, Q86UL8, sequence (Q86UL8 600-682): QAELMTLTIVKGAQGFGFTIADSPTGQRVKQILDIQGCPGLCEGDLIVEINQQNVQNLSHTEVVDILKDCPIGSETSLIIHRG

[17] = target: T7, MPDZ_10, O75970
[18] = target: T8, DFNB31_3, Q9P202
[19] = target: CASK, O14936
CASK, O14936, sequence (O14936 487-570): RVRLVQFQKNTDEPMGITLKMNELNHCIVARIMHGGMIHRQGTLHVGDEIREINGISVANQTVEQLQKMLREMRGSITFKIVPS

[20] = target: GOPC, Q9HD26
[21] = target: FRMPD2_2, Q68DX3
FRMPD2_2, Q68DX3, sequence (Q68DX3 944-1038): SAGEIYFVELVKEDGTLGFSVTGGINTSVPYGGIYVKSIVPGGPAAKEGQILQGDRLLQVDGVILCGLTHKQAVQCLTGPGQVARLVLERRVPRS

[22] = target: T9, SNTA1, Q13424
[23] = target: LDB3, O75112
LDB3, O75112, sequence (O75112 1-94): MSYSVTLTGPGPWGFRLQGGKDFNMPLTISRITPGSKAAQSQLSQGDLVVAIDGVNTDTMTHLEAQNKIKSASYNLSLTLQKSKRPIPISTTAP

[24] = target: NHERF2_2, Q15599
NHERF2_2, Q15599, sequence (Q15599 142-238): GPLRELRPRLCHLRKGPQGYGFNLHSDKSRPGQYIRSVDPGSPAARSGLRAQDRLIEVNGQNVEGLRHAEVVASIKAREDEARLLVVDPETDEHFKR

[25] = target: DLG2_3, Q15700
[26] = target: Inadl_1, Q8NI35
Inadl_1, Q8NI35, sequence (Q8NI35 113-229): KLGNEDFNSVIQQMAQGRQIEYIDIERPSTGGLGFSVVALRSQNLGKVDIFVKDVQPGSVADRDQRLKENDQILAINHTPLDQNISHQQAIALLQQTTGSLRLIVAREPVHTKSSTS

[27] = target: IL16_4, Q14005
IL16_4, Q14005, sequence (Q14005 1229-1329): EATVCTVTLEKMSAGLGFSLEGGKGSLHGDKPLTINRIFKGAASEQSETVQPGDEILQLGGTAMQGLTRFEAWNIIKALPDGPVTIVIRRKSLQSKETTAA

[28] = target: T10, NHERF3_1, Q5T2W1

| pKd [1] | pKd [2] | pKd [3] | pKd [4] | pKd [5] | pKd [6] | pKd [7] | pKd [8] | pKd [9] | pKd [10] | pKd [11] | pKd [12] | pKd [13] | pKd [14] | pKd [15] | pKd [16] | pKd [17] | pKd [18] | pKd [19] | pKd [20] | Binder | further results |
| --- | --- | --- | --- | --- | --- | --- | --- | --- | --- | --- | --- | --- | --- | --- | --- | --- | --- | --- | --- | --- | --- |
| below the threshold | 3.96 | below the threshold | below the threshold | 3.5 | below the threshold | below the threshold | 3.77 | below the threshold | 3.55 | below the threshold | below the threshold | 3.61 | below the threshold | 4.35 | 3.7 | below the threshold | 4.16 | below the threshold | below the threshold | SLNANEVEWF [RNF130, Q86XS8] | pKd [21]: 3.59; pKd [22]: below the threshold; pKd [23]: below the threshold; pKd [24]: 4.56; pKd [25]: 3.73; pKd [26]: 3.52; pKd [27]: below the threshold; pKd [28]: 3.89 |
| below the threshold | below the threshold | below the threshold | 3.59 | 3.77 | below the threshold | below the threshold | below the threshold | below the threshold | below the threshold | below the threshold | below the threshold | below the threshold | below the threshold | 4.89 | below the threshold | below the threshold | 4.07 | below the threshold | below the threshold | MHIQEKGFHV [EPHA6, Q9UF33] | pKd [21]: below the threshold; pKd [22]: below the threshold; pKd [23]: below the threshold; pKd [24]: below the threshold; pKd [25]: below the threshold; pKd [26]: below the threshold; pKd [27]: 3.55; pKd [28]: 3.71 |
